According to US20220047712A1 (FORTIS THERAPEUTICS, published 2022):

Molecular target: T1, CD46 (human, UniProt P15529 35-392)
T1 construct: whole, on cells; also called CD46 complement regulatory protein; cluster of differentiation 46
T1 sequence (looked up): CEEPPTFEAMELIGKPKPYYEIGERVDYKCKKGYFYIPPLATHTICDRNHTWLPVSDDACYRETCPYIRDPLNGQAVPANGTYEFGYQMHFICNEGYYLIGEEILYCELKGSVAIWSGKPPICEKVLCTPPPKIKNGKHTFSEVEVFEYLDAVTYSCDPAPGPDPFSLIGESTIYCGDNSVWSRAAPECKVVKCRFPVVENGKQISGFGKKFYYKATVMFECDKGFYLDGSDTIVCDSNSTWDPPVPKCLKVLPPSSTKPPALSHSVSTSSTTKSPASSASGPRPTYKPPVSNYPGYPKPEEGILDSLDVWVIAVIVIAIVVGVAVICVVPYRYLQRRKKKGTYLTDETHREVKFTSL
Test: flow cytometry on cells, YS5FL at 10 µg/mL, AlexaFluor-488 anti-human IgG1 Fc secondary
Procedure: Cell surface CD46 was detected by flow cytometry. Cells were harvested, centrifuged and resuspended in FACS buffer (PBS+2% FBS) at a concentration of 1×10⁶ cells/mL. 100 μL of cell suspension was dispensed into each well of a 96-well plate, 100 μL of YS5FL at 10 μg/mL was added to the wells and incubated for 1 hour at 4° C. The cells were washed three times with FACS buffer. After the third wash, the cells were resuspended in 100 μL 1:500 diluted AlexaFluor-488 mouse anti-Human IgG1 Fc secondary antibody and incubated for 1 hour at 4° C. in the dark. The cells were washed three times with 200 μL PBS by centrifuging at 2000 RPM for 5 minutes. After the last wash, the cells were resuspended in 300 μL cold PBS and analyzed on a FACSVerse™ (BD Biosciences) flow cytometer. YS5FL bound specifically to the surface of LnCap-C4-2B, LnCap-C4, DU145, PC3-luc, and Hs27 prostate cancer cells, but not to non-tumor BPH1 cells. FIG. 1. Likewise, YS5FL bound specifically to the surface of RPMI8226, MM.1S, MM.1R, and INA6 multiple myeloma cells. FIG. 2.

binding result: binds
B1: YS5FL (antibody, human IgG1, lambda, V domains shown)
VH: QVQLVQSGGGVVQPGRSLRLACAASGLTVNNYAMHWVRQAPGKGLEWVAVISYDGNNKYYADSVKGRFTISRDNSKNTLYLQMNSLRAEDTAVYYCAKGGGYFDLWGRGTLVTVSS
VL: QSVLTQPPSVSGAPGQRVTISCTGSSSNIGAGYDVHWYQQLPGTAPKLLIYGNNNRPSGVPDRFSGSKSGTSASLAITGLQAEDEADYYCSSYTSGTWLFGGGTKLTVLG
notes: FOR46 is this antibody conjugated to MMAE via mc-vc-PAB; also called anti-CD46 YS5FL antibody; YS5FL mAb
